Measurements reported in IntAct's records for PubMed 14978263.

Target: csk21_arath CKA1 (UniProt Q08467)
Sequence (Q08467 whole entry): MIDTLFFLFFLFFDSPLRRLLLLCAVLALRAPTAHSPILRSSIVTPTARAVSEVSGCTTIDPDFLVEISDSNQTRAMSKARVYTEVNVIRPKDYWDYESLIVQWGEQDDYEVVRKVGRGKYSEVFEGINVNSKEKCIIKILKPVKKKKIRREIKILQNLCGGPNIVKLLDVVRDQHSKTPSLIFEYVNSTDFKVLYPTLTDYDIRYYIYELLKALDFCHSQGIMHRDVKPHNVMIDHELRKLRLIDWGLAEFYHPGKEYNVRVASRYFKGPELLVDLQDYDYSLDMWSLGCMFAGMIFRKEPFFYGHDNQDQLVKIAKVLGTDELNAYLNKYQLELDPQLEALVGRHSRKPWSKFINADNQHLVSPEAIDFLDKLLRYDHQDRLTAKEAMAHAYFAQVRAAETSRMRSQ

Chain of Protein CCA1 (Arabidopsis thaliana (Mouse-ear cress)), P92973 S6A (P92973 whole entry S6A): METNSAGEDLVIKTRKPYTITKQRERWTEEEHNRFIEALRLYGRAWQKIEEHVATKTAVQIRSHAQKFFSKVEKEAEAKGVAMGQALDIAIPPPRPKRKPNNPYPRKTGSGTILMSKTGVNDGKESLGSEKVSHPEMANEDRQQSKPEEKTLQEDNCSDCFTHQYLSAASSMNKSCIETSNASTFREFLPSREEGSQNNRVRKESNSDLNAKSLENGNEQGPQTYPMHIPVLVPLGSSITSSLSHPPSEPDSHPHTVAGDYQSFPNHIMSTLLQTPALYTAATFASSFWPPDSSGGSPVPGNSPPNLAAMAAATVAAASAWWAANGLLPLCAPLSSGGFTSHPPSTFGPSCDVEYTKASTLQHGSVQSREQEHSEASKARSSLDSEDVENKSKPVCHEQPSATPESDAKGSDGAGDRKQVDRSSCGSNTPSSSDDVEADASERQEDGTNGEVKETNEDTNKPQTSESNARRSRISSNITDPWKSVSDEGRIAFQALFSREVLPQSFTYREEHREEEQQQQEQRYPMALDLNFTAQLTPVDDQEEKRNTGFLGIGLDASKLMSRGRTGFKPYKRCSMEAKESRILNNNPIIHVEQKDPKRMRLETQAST
Chain of Protein CCA1 (Arabidopsis thaliana (Mouse-ear cress)), P92973 S5A (P92973 whole entry S5A): as the sequence (P92973 whole entry S6A) above, with S5A, A6S counted along it

**Q.** Which “effect of a mutation on the interaction” value does the source give for “Protein CCA1 (Arabidopsis thaliana (Mouse-ear cress)), P92973 S433A” here?
**A.** decreasing interaction

**Q.** For “Protein CCA1 (Arabidopsis thaliana (Mouse-ear cress)), P92973 S431A”, which “effect of a mutation on the interaction” value is on record?
**A.** decreasing interaction

**Q.** “Protein CCA1 (Arabidopsis thaliana (Mouse-ear cress)), P92973 S432A” was tested. Which “effect of a mutation on the interaction” value did it give?
**A.** decreasing interaction

**Q.** For “Protein CCA1 (Arabidopsis thaliana (Mouse-ear cress)), P92973 S484A”, which “effect of a mutation on the interaction” value is on record?
**A.** decreasing interaction

**Q.** With “Protein CCA1 (Arabidopsis thaliana (Mouse-ear cress)), P92973 S5A” as the substance, how does the “effect of a mutation on the interaction” value read?
**A.** decreasing interaction

**Q.** How did the “effect of a mutation on the interaction” value turn out when “Protein CCA1 (Arabidopsis thaliana (Mouse-ear cress)), P92973 S6A” was run?
**A.** decreasing interaction
